Columns and labels:
human ZcytoR14 = biological target: T1, human ZcytoR14 (human, UniProt Q8NAC3 21-791); assay: cell-based or functional assay
T1 sequence: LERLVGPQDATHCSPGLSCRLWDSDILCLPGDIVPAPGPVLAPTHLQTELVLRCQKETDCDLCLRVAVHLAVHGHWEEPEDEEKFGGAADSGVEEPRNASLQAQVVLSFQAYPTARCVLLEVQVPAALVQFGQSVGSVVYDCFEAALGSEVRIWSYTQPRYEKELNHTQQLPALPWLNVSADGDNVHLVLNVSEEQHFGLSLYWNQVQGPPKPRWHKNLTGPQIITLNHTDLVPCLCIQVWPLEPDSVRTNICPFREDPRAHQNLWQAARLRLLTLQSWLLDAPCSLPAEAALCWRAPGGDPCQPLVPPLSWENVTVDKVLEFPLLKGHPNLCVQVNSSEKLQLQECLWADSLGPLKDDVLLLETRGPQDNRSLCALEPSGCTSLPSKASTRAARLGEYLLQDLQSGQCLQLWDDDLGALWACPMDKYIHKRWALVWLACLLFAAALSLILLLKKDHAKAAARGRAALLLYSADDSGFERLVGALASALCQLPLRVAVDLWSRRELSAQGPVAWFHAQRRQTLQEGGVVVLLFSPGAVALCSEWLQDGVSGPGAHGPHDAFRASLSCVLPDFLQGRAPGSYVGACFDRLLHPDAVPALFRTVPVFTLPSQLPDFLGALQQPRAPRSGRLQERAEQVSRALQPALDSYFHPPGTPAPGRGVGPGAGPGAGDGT

human IL-17 receptor = biological target: T2, human IL-17 receptor (human, UniProt Q96F46 33-320); assay: cell-based or functional assay
T2 sequence: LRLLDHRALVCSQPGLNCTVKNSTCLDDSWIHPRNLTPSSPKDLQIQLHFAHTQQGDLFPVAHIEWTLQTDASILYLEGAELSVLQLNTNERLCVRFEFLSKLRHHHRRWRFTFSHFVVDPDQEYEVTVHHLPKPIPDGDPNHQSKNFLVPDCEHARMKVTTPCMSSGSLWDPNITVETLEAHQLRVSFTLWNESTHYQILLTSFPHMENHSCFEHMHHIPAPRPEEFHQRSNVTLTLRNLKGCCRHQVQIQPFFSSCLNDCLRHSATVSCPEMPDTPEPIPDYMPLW

EC50 of ap1/nfkb luciferase activation in the hIL-17RCX1 recombinant line (human ZcytoR14): 0.61 ng/mL
fold more potent EC50 in the recombinant line against the parental line (human ZcytoR14): 17 fold
EC50 of ap1/nfkb luciferase activation in nih3t3/kz142.8/IL-17R cells (human IL-17 receptor): 12.4 ng/mL
B1: human IL-17F (ligand)
chain: RKIPKVGHTFFQKPESCPPVPGGSMKLDIGIINENQRVSMSRNIESRSTSPWNYTVTWDPNRYPSEVVQAQCRNLGCINAQGKEDISMNSVPIQQETLVVRRKHQGCSVSFQLEKVLVTVGCTCVTPVIHHVQ
modifications: biotinylated (Example 10) or 125I-radiolabeled by the iodobead method (Example 11) when used as tracer; unlabeled as cold competitor

— US20060002925A1 (ZymoGenetics, published 2006)
